Columns and labels:
[1] = molecular target: T1, hEGFR ECR-His6-Avi-Biotin (human, UniProt P00533 25-642, biotinylated on the Avi tag using BirA ligase); assay: phage ELISA: biotinylated hEGFR ECR captured on streptavidin plate, phage display scFv titrated, anti-M13-HRP; pH 6.0
T1 construct: also called WT hEGFR ECR; human EGFR ECD; not shown: His6-Avi tag

[2] = molecular target: T1, hEGFR ECR-His6-Avi-Biotin; assay: IgG1 ELISA on hEGFR ECR, pH 6.5 and pH 7.4
[3] = molecular target: T1, hEGFR ECR-His6-Avi-Biotin; assay: ELISA: hEGFR ECR on plate, IgG1 titrated, anti-hFc-HRP; pH 6.5 [table]
[4] = molecular target: T1, hEGFR ECR-His6-Avi-Biotin; assay: ELISA: hEGFR ECR on plate, IgG1 titrated, anti-hFc-HRP; pH 7.4 [table]
[5] = molecular target: T1, hEGFR ECR-His6-Avi-Biotin; assay: phage ELISA: hEGFR ECR on plate, phage display Fab titrated, anti-M13-HRP; EC50 at pH 7.4 over EC50 at pH 6.5 [table]

B1: 14C07 (phage display scFv form) (scFv, V domains shown)
VH: QVQLVQSGAEVKRPGSSVKVSCKASGGTFSSYAISWVRQAPGQGLEWMGGIIPIFGTANYAQKFQGRVTITADESTSTAYMELSSLRSEDTAVYYCARDSSSGWYDYFDYWGQGTLVTVSS
VL: QPVLTQPPSVSAAPGAMARITCESPDIGSKSVQWYQQRPGQAPILVIYYDDDRPSGIPERFSGSNSGNTAALTINWVEPEDEADYYCQAWDDSDPVVFGGGTQLTVL
EC50 (read off the curve) [1]: ~1e+11 cfu/ml

B2: G532^V (human IgG1 form) (antibody, V domains shown)
VH: QVQLVQSGAEVKRPGSSVKVSCKASGGISDGSAISWVRQAPGQGLEWMGGIRWWGGITNYAQKFQGRVTITADESTSTAYMELSSLRSEDTAVYYCARDSSLGYYDYFDYWGQGTLVTVSS
VL: QPVLTQPPSVSAAPGQTARITCGGNNIGEKHVQWYQQRPGQAPVLVIYYDSTRPSGIPERFSGSNSGNTAALTINSVEAGDEADYYCQAWDDYDPVVFGGGTQLTVLG
notes: G532 with LCDR1 E32H and LCDR2 D52S, D53T
EC50 ratio (pH 7.4/pH 6.5) [2]: 1.64
fold lower binding pH-dependency than G532 [2]: ~5 fold
EC50 [3]: 0.316 nM
EC50 [4]: 0.517 nM

B3: WT G5V2 (phage display Fab form) (Fab, V domains shown)
VH: QVQLVQSGAEVKRPGSSVKVSCKASGGISDGSAISWVRQAPGQGLEWMGGIYFFNGNTNYAQKFQGRVTITADESTSTAYMELSSLRSEDTAVYYCARDSSLGYYDYFDYWGQGTLVTVSS
VL: QPVLTQPPSVSAAPGQTARITCGGNNIGEKYVQWYQQRPGQAPVLVIYYDDDRPSGIPERFSGSNSGNTAALTINSVEAGDEADYYCQAWDDYDPVVFGGGTQLTVL
EC50 ratio (pH 7.4/pH 6.5) [5]: 1.21

B4: G5V2 Y32H (phage display Fab form) (Fab, V domains shown)
VH: QVQLVQSGAEVKRPGSSVKVSCKASGGISDGSAISWVRQAPGQGLEWMGGIYFFNGNTNYAQKFQGRVTITADESTSTAYMELSSLRSEDTAVYYCARDSSLGYYDYFDYWGQGTLVTVSS
VL: QPVLTQPPSVSAAPGQTARITCGGNNIGEKHVQWYQQRPGQAPVLVIYYDDDRPSGIPERFSGSNSGNTAALTINSVEAGDEADYYCQAWDDYDPVVFGGGTQLTVL
notes: Kabat numbering (31st letter by plain count)
EC50 ratio (pH 7.4/pH 6.5) [5]: 0.61
